Measurements as given in PMC5575297, “Interaction of lipopolysaccharides at intermolecular sites of the periplasmic Lpt transport assembly” (Scientific Reports, 2017).

B1: LptC construct lacking the 23 residues long N-terminal transmembrane domain (domain or fragment, E. coli, UniProt P0ADV9 24-191, looked up)
chain: MAEKDDTAQVVVNNNDPTYKSEHTDTLVYNPEGALSYRLIAQHVEYYSDQAVSWFTQPVLTTFDKDKIPTWSVKADKAKLTNDRMLYLYGHVEVNALVPDSQLRRITTDNAQINLVTQDVTSEDLVTLYGTTFNSSGLKMRGNLRSKNAELIEKVRTSYEIQNKQTQP
notes: LptC, E. coli, lacking the first 23 residues (transmembrane domain); For NMR the protein was isotope-labelled (2H, 13C, 15N, or AILV methyl-labelled) or unlabelled; also called LptC dimer; source: E. coli M15 [prep4], pQESH plasmid, purified (HiTrap, S75 SEC)
B2: LptAm (monomeric E. coli LptA mutant, LptA Δ160-185) (domain or fragment, UniProt P0ADV1 28-159, looked up)
chain: VTGDTDQPIHIESDQQSLDMQGNVVTFTGNVIVTQGTIKINADKVVVTRPGGEQGKEVIDGYGKPATFYQMQDNGKPVEGHASQMHYELAKDFVVLTGNAYLQQVDSNIKGDKITYLVKEQKMQAFSDKGKR
notes: LptA, E. coli, residues 28-159; lacks the last C-terminal β-strand (Δ160-185); For NMR the protein was isotope-labelled (2H, 13C, 15N) or unlabelled; the purified protein is 28-159; also called monomeric LptA; C-terminally truncated LptA; source: E. coli BL21(DE3), pET21b, purified (HiTrap, S75 SEC)

What was measured:
[1] = biological target: T1, LptC construct lacking the 23 residues long N-terminal transmembrane domain (E. coli), P0ADV9; assay: SEC-MALS; 40 µl injected on Superdex S200 (10/300GL) in buffer B (50 mM sodium phosphate, 150 mM NaCl, pH 8) at 25 °C; proteins alone and LptC-LptAm mixtures (also with a two-times molar excess of LptAm); protein conjugate two-component analysis for the complex; settings: remark: other sources report otherwise
T1 chain: B1 chain

[2] = biological target: B2; assay: as above; settings: both partners purified
[3] = biological target: B2; assay: NMR titration; isotope-labelled LptC or LptAm with the unlabelled partner (1.2 molar equivalents); 2D BEST-TROSY / methyl spectra; 35 °C, buffer B with 5% D2O; submillimolar concentrations; settings: both partners purified
[4] = biological target: T1, LptC construct lacking the 23 residues …; assay: SAXS; beamline BM29 (ESRF), 20 °C, NMR buffer with 0.5% w/v sucrose; LptAm 1.6 and 2.4 mg/ml, LptC 1, 2 and 3 mg/ml, LptAm:LptC 1:1 molar ratio at 3.6 and 5.4 mg/ml; extrapolated to zero dilution; settings: remark: other sources report otherwise
[5] = biological target: B1; assay: as above; settings: both partners purified

Row | Binder | stoichiometry N [1] | stoichiometry N [2] | stoichiometry N [3] | stoichiometry N [4] | binding result [5]
1 | B1 | 2 | 2 LptC:LptAm (2:1) | ~1 LptC:LptAm molar ratio | 2 | –
2 | B2 | – | – | – | – | binds
